Experimental data published in publication PMC4275181, “Evolution of RNA-Protein Interactions: Non-Specific Binding Led to RNA Splicing Activity of Fungal Mitochondrial Tyrosyl-tRNA Synthetases”.

Columns and labels:
[1] = molecular target: T1, Sc CTD (Saccharomyces cerevisiae, UniProt P48527 414-492); assay: filter binding; 25C; n=1.6; 100 mM KCl, 5 mM MgCl2, 20 mM Tris-HCl pH 7.5, 5 mM DTT, 0.1 mg/ml BSA, 10% glycerol, 5 pM RNA, 30 min, 25C or 37C; nitrocellulose/nylon filter; conditions: protein: recombinant; label: 5'-32P
T1 sequence: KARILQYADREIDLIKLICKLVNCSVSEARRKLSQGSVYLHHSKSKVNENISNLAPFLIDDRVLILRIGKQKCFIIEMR

[2] = molecular target: T2, CYT-18 NTDs (Neurospora crassa, UniProt P12063 33-417); assay: filter binding; 25C; 100 mM KCl, 5 mM MgCl2, 20 mM Tris-HCl pH 7.5, 5 mM DTT, 0.1 mg/ml BSA, 10% glycerol, 5 pM RNA, 30 min, 25C or 37C; nitrocellulose/nylon filter; conditions: protein: recombinant; tags: N-terminal 6xHis, TEV-cleaved; extra N-terminal Gly; chain copies: 2; label: 5'-32P
T2 sequence: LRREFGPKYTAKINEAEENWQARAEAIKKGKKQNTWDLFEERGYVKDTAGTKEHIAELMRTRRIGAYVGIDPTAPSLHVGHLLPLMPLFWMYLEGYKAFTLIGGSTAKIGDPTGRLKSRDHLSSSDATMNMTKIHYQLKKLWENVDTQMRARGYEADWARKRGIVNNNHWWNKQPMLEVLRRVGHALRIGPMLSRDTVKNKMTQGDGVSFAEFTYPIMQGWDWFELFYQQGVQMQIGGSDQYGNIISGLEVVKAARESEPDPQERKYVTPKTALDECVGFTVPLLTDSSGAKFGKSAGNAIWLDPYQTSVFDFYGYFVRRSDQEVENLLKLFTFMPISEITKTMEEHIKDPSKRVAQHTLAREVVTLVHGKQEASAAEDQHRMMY

Binder: UUUUUUUUUUUUUUUUUUUUUUUUUUUUUU (ssRNA) [poly(U)30]
- apparent K (half saturation) [1]: 1000 nM
- binding result [2]: no binding
